Measured values from patent US20140322225A1.

Legend:
[1] = biological target: ADM (human or mouse, not stated for this control); experiment: cell-based or functional assay
[2] = biological target: human recombinant adrenomedullin receptor (CRLR+RAMP3) (human)

Substance	Maximal inhibition of ADM bioactivity (ADM-Bioassay) (%) [1]	EC50 (read off the curve), cAMP formation [2]
Non specific mouse IgG (antibody)	0%	–
human adrenomedullin (hADM 1-52) (peptide)	–	1 nM
